Data on five molecules can be found in patent publication US11142752B2, “Pullulanase mutant” (Jiangnan University, priority 2018, dated 2021).

Where a chain is given by its changes, count along the chain named. Names and notes keep the numbering of the source. Values joined by “and” are separate entries in the source; they are usually repeats but may differ in a detail not shown here. Equal entries are not always repeated.

In the data set the test system is pullulanase derived from Bacillus subtilis str. 168. Nature of the data set: Inhibitory effect of cyclodextrin on pullulanase enzyme activity (DNS method, pullulan substrate). In kind it is biochemical. The conditions noted are these: for Reduction rate of specific enzyme activity in existence of α-CD / Reduction rate of specific enzyme activity in existence of β-CD / Reduction rate of specific enzyme activity in existence of γ-CD: Bacillus subtilis str. 168 pullulanase, 1% pullulan pH 6.0, 40° C., 30 min; for Reduction rate of specific enzyme activity in existence of α-CD: inhibitor α-CD (0.1 mL of 10 mM cyclodextrin); for Reduction rate of specific enzyme activity in existence of β-CD: inhibitor β-CD (0.1 mL of 10 mM cyclodextrin); for Reduction rate of specific enzyme activity in existence of γ-CD: inhibitor γ-CD (0.1 mL of 10 mM cyclodextrin); for Inhibitory effects of three cyclodextrins on the pullulanase mutant compared with the wild type pullulanase: α-CD, β-CD and γ-CD, comparison of mutant with wild type pure enzyme. From the text:
2. Measurement of Enzyme Activity of the Pullulanase:
A 3,5-dinitrosalicylic acid (DNS) method is adopted. The pullulanase catalyzes the hydrolysis of pullulan to produce reducing sugar under certain conditions, 3,5-dinitrosalicylic acid and the reducing sugar are reduced under thermal conditions to produce a brown-red amino complex, the color depth is directly proportional to the amount of the reducing sugar within a certain range, and the measurement can be performed at the wavelength of 540 nm so as to calculate the enzyme activity. Enzyme activity unit definition: the amount of the enzyme that catalyzes the production of the reducing sugar equivalent to 1 μmol of glucose reducing power per minute is defined as one activity unit.
3. Measurement of the Enzyme Activity Comprises the Following Steps:
A. preheating: putting 1 mL of a 1% pullulan solution of which the pH value is 6.0 and 0.1 mL of a buffer solution of which the pH value is 6.0 in a centrifuge tube, and performing thermal insulation for 10 min on a water bath of 40° C.;
B. reaction: adding 0.1 mL (10 U) of an enzyme solution, performing shaking and mixing uniformly, performing accurate timing for 30 min, adding 1.5 mL of DNS for stopping reaction, performing treatment in a boiling water bath for 10 min, and performing instant cooling; and
C. measurement: measuring the light absorption value under the condition of 540 nm, and calculating the activity.
Reduction of the Inhibitory Effect of Enzyme Activity Characterization:
A. preheating: putting 1 mL of the 1% pullulan solution of which the pH value is 6.0 and 0.1 mL of 10 mM cyclodextrin in the centrifuge tube, and performing thermal insulation for 10 min on the water bath of 40° C.;
B. reaction: adding 0.1 mL (10 U) of the enzyme solution, performing shaking and mixing uniformly, performing accurate timing for 30 min, adding 1.5 mL of DNS for stopping reaction, performing treatment in the boiling water bath for 10 min, and performing instant cooling; and […]

[1] abbreviates: listed as wild type pure enzyme.

B1: Mutant F476G: Bacillus subtilis str. 168 pullulanase with phenylalanine at position 476 mutated into glycine (protein, UniProt C0SPA0 1-718, looked up, variant F476G)
Pullulanase: MVSIRRSFEAYVDDMNIITVLIPAEQKEIMTPPFRLETEITDFPLAVREEYSLEAKYKYVCVSDHPVTFGKIHCVRASSGHKTDLQIGAVIRTAAFDDEFYYDGELGAVYTADHTVFKVWAPAATSAAVKLSHPNKSGRTFQMTRLEKGVYAVTVTGDLHGYEYLFCICNNSEWMETVDQYAKAVTVNGEKGVVLRPDQMKWTAPLKPFSHPVDAVIYETHLRDFSIHENSGMINKGKYLALTETDTQTANGSSSGLAYVKELGVTHVELLPVNDFAGVDEEKPLDAYNWGYNPLHFFAPEGSYASNPHDPQTRKTELKQMINTLHQHGLRVILDVVFNHVYKRENSPFEKTVPGYFFRHDECGMPSNGTGVGNDIASERRMARKFIADCVVYWLEEYNVDGFRFDLLGILDIDTVLYMKEKATKAKPGILLFGEGWDLATPLPHEQKAALANAPRMPGIGFFNDMFRDAVKGNTGHLKATGFALGNGESAQAVMHGIAGSSGWKALAPIVPEPSQSINYVESHDNHTFWDKMSFALPQENDSRKRSRQRLAAAIILLAQGVPFIHSGQEFFRTKQGVENSYQSSDSINQLDWDRRETFKEDVHYIRRLISLRKAHPAFRLRSAADIQRHLECLTLKEHLIAYRLYDLDEVDEWKDIIVIHHASPDSVEWRLPNDIPYRLLCDPSGFQEDPTEIKKTVAVNGIGTVILYLASDLKSFA
For B1, the “Reduction rate of specific enzyme activity in existence of α-CD” value (shortened to “Reduction rate … of α-CD”) was 10.6%, the “Reduction rate of specific enzyme activity in existence of β-CD” value (“Reduction rate … of β-CD” below) was found to be 17.1%, the “Reduction rate of specific enzyme activity in existence of γ-CD” value (from here on “Reduction rate … of γ-CD”) was 17.6% and the “Inhibitory effects of three cyclodextrins on the pullulanase mutant compared with the wild type pullulanase” value is “significantly lower than that of the wild type pullulanase”.

B2: Mutant F476D: Bacillus subtilis str. 168 pullulanase with phenylalanine at position 476 mutated into aspartic acid (protein, UniProt C0SPA0 1-718, looked up, variant F476D)
Pullulanase: B1 Pullulanase with G476D
B2: the “Reduction rate … of α-CD” value worked out at 5.6%, the “Reduction rate … of β-CD” value was 11.1%, the “Reduction rate … of γ-CD” value is 11.0% and the “Inhibitory effects of three cyclodextrins on the pullulanase mutant compared with the wild type pullulanase” value is on record as “significantly lower than that of the wild type pullulanase”.

B3: Wild enzyme: wild type pullulanase derived from Bacillus subtilis str. 168 (PDB:2E8Z, NCBI CAB14971.2, SEQ ID NO:2) (protein, listed as Bacillus subtilis)
chain: B1 Pullulanase with G476F
On to B3, for which the “Reduction rate … of α-CD” value is on record as 14.3%, the “Reduction rate … of β-CD” value was 42.8% and the “Reduction rate … of γ-CD” value amounted to 17.1%. Under setting [1], the “Reduction rate … of α-CD” value worked out at 14.3%; the “Reduction rate … of β-CD” value is 42.8%; the “Reduction rate … of γ-CD” value is 7.1% and 17.1%.

B4: Mutant F476I: Bacillus subtilis str. 168 pullulanase mutated at position 476 (F to I) (protein, UniProt C0SPA0 1-718, looked up, variant F476I)
Pullulanase: B1 Pullulanase with G476I
On to B4, for which the “Reduction rate … of α-CD” value is 8.2%, the “Reduction rate … of β-CD” value amounted to 21.7% and the “Reduction rate … of γ-CD” value was 15.2%.

B5: Mutant F476M: Bacillus subtilis str. 168 pullulanase mutated at position 476 (F to M) (protein, UniProt C0SPA0 1-718, looked up, variant F476M)
Pullulanase: B1 Pullulanase with G476M
Take B5: the “Reduction rate … of α-CD” value is recorded as 6.5%, the “Reduction rate … of β-CD” value was found to be 20.6% and the “Reduction rate … of γ-CD” value is 16.1%.
